Laboratory results: patent US10039812B2, “Therapeutic for treating clostridium difficile infection” (priority 2012, dated 2018)

What was measured:
[1] = tested on: C. difficile 630Δerm biofilm; experiment: DNase, RNase and proteinase K digests of biofilm (floc) in liquid culture
[2] = tested on: C. difficile R20291 biofilm; experiment: DNase, RNase and proteinase K digests of biofilm in liquid culture; details: 15 minutes at the concentrations indicated (FIG. 8)
[3] = tested on: C. difficile strain 630Δerm; experiment: Inhibition of biofilm formation in TC flasks; details: 10 mg/ml in the growth media; incubated statically for six days (FIG. 9)
[4] = 1 mg/ml, 15 minute treatment, room temperature

Molecule	Degradation of the biofilm (floc produced in static culture) ([1]; 100 ug/ml, 15 minute treatment, room temperature)	Degradation of the biofilm (floc produced in static culture) [1, 4]	Degradation of the biofilm [2]	Degradation of the biofilm (floc produced in static culture) ([1]; concentration increased to 2 mg/ml proteinase K (data not shown))	Degradation of the biofilm (floc produced in static culture) ([1]; incubation time increased to 24 hours (data not shown))	Formation of biofilm in liquid media [3]
RNase: RNaseA enzyme used to digest biofilm constituents (protein, UniProt P61823 27-150, looked up) Ribonuclease pancreatic: KETAAAKFERQHMDSSTSAASSSNYCNQMMKSRNLTKDRCKPVNTFVHESLADVQAVCSQKNVACKNGQTNCYQSYSTMSITDCRETGSSKYPNCAYKTTQANKHIIVACEGNPYVPVHFDASV	did not disrupt the biofilm	did not disrupt the biofilm	only degraded by DNase treatment			
proteinase K: a proteinase used to digest biofilm constituents (protein, UniProt P06873 106-384, looked up) Proteinase K: AAQTNAPWGLARISSTSPGTSTYYYDESAGQGSCVYVIDTGIEASHPEFEGRAQMVKTYYYSSRDGNGHGTHCAGTVGSRTYGVAKKTQLFGVKVLDDNGSGQYSTIIAGMDFVASDKNNRNCPKGVVASLSLGGGYSSSVNSAAARLQSSGVMVAVAAGNNNADARNYSPASEPSVCTVGASDRYDRRSSFSNYGSVLDIFGPGTSILSTWIGGSTRSISGTSMATPHVAGLAAYLMTLGKTTAASACRYIADTANKGDLSNIPFGTVNLLAYNNYQA		partial degradation with proteinase K was not observed	only degraded by DNase treatment	partial degradation	partial degradation	decreases biofilm formation
